The text below walks through data of patent US20130197191A1 (published 2013).

The chains are these.
B1: β-Klotho walked dimer BK_R1c_D05 (designed binder)
chain: CAAGQFRCHNSDTCLPGAWVCDGDNDCGDNSDEASCQKRTCHSFNQFECRNGQCIPLHLVCDGVPDCGDNSDETDCGDSHILPFSTPGPST
B2: β-Klotho walked dimer BK_R1c_D22 (designed binder)
chain: CQPDEFTCSSGRCIPQPWLCDGLNDCGDGSDEPPAHCSAPASEPPGSLCRPDEFRCKNGRCIPQTWVCDGEDDCQDSSDETDCESTVRT
B3: β-Klotho walked dimer BK_R1c_D18 (designed binder)
chain: CPPDEFQCRGTKKCLPLAWVCDGDNDCEDDSDEESCASAVHTCQSNEFRCRSGRCIPQHWLCDGLNDCGDGSDESQQCSAPASEPPGSL
B4: β-Klotho walked dimer BK_R1c_D24 (designed binder)
chain: CRPDEFPCRSTGRCVPRRWVCDGVDDCGDNSDESLAHCQTPTCQPDEFTCSSGRCIPQPWLCDGLNDCGDGSDEPPAHCSAPASEPPGSL

For orientation: EC50 means the concentration giving half of the maximal effect.

recombinant human β-Klotho, sequence (Q86Z14 53-996): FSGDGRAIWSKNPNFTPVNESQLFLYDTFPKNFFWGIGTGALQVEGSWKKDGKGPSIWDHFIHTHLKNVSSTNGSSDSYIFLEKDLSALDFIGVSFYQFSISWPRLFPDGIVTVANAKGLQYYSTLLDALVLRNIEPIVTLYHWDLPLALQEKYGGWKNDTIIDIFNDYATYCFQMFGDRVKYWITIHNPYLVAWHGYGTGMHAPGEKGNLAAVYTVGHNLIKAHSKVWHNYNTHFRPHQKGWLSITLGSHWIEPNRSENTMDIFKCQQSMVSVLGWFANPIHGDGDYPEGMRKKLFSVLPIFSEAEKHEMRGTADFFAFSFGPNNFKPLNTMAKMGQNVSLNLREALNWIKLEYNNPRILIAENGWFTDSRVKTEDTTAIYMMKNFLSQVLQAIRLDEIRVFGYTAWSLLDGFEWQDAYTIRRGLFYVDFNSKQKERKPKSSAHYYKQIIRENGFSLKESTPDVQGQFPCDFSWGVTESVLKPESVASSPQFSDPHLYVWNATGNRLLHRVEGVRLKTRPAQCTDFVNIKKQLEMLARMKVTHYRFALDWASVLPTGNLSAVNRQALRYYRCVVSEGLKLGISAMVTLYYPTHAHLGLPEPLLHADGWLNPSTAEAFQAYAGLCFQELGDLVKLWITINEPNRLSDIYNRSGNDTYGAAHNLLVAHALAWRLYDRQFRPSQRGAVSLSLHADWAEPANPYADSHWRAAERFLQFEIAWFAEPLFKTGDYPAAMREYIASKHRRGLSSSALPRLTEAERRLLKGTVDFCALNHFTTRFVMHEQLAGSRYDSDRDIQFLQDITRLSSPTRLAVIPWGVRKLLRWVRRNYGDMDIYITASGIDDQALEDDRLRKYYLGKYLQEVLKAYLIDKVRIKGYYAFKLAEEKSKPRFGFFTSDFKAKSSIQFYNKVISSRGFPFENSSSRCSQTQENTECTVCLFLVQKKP

The assay addresses recombinant human β-Klotho (UniProt Q86Z14 53-996, biotinylated in the AlphaScreen assays (site not stated)). Kind of assay: binding EC50.
For the molecule B1, the EC50 was found to be 0.01 nM.
As for B2, the figure is 99 nM.
For the molecule B3, the EC50 was found to be 21.5 nM.
Take B4: the EC50 was 8.52 nM.
